Results: publication PMC5933801, “Cryo-EM structure of infectious bronchitis coronavirus spike protein reveals structural and functional evolution of coronavirus spike proteins” (PLoS Pathogens, 2018)

Target: the molecule itself
Assay: cryo-EM structure; IBV spike ectodomain 0.35 mg/ml in 2 mM Tris pH7.2 and 20 mM NaCl, plunge-frozen; pre-fusion state; three-fold noncrystallographic symmetry constraints in refinement

B1: IBV spike ectodomain (avian infectious bronchitis coronavirus, strain M41) (domain or fragment)
chain: LYDSSSYVYYYQSAFRPPNGWHLHGGAYAVVNISSESNNAGSSPGCIVGTIHGGRVVNASSIAMTAPSSGMAWSSSQFCTAHCNFSDTTVFVTHCYKYDGCPITGMLQKNFLRVSAMKNGQLFYNLTVSVAKYPTFKSFQCVNNLTSVYLNGDLVYTSNETTDVTSAGVYFKAGGPITYKVMRKVKALAYFVNGTAQDVILCDGSPRGLLACQYNTGNFSDGFYPFINSSLVKQKFIVYRENSVNTTFTLHNFTFHNETGANPNPSGVQNILTYQTQTAQSGYYNFNFSFLSSFVYKESNFMYGSYHPSCNFRLETINNGLWFNSLSVSIAYGPLQGGCKQSVFSGRATCCYAYSYGGPSLCKGVYSGELDLNFECGLLVYVTKSGGSRIQTATEPPVITRHNYNNITLNTCVDYNIYGRTGQGFITNVTDSAVSYNYLADAGLAILDTSGSIDIFVVQGEYGLTYYKVNPCEDVNQQFVVSGGKLVGILTSRNETGSQLLENQFYIKITNGTRRFRRSITENVANCPYVSYGKFCIKPDGSIATIVPKQLEQFVAPLLNVTENVLIPNSFNLTVTDEYIQTRMDKVQINCLQYVCGNSLDCRDLFQQYGPVCDNILSVVNSIGQKEDMELLNFYSSTKPAGFNTPFLSNVSTGEFNISLLLTTPSSPRRRSFIEDLLFTSVESVGLPTDDAYKNCTAGPLGFLKDLACAREYNGLLVLPPIITAEMQTLYTSSLVASMAFGGITAAGAIPFATQLQARINHLGITQSLLLKNQEKIAASFNKAIGRMQEGFRSTSLALQQIQDVVNKQSAILTETMASLNKNFGAISSVIQEIYQQLDAIQANAQVDRLITGRLSSLSVLASAKQAEHIRVSQQRELATQKINECVKSQSIRYSFCGNGRHVLTIPQNAPNGIVFIHFSYTPDSFVNVTAIVGFCVKPANASQYAIVPANGRGIFIQVNGSYYITARDMYMPRAITAGDIVTLTSCQANYVSVNKTVITTFVDNDDFDFNDELSKWWNDTKHELPDFDKFNYTVPILDIDSEIDRIQGVIQGLNDSLIDLEKLS
modifications: glycans N-linked to 20 sites
notes: Spike protein of avian infectious bronchitis coronavirus (IBV) strain M41, GenBank ABI26423.1, ectodomain residues 20-1084; transmembrane anchor and intracellular domain replaced by GCN4 and His6 tags; The structural model holds residues 21-1022 except 702-710; The GCN4 tag is a trimerization tag; also called trimeric IBV spike ectodomain; source: Sf9 insect cells (Bac-to-Bac), harvested from …
For B1, the “stoichiometry N” value was 3.
